# Measurements taken from patent publication US20250388664A1 (BIOARCTIC, published 2025).
# Where two headings read alike, the source gives them in different places.
# T1: AβpE11-28 monomer (UniProt P05067 682-699, pyroglutamate at position 11 (N-terminal residue))
# T1 construct: range 11-28 (Aβ numbering)
# T1 peptide (looked up): EVHHQKLVFFAEDVGSNK
# T2: AβpE11-40 monomer (UniProt P05067 682-711, pyroglutamate at position 11 (N-terminal residue))
# T2 construct: range 11-40 (Aβ numbering)
# T2 peptide (looked up): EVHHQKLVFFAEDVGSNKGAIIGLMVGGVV
# T3: truncated cTfR1 of SEQ ID NO:123 (cynomolgus monkey, UniProt Q5RDH6 122-760 (Pongo abelii entry))
# T3 construct: also called cynomolgus TfR1
# T3 chain: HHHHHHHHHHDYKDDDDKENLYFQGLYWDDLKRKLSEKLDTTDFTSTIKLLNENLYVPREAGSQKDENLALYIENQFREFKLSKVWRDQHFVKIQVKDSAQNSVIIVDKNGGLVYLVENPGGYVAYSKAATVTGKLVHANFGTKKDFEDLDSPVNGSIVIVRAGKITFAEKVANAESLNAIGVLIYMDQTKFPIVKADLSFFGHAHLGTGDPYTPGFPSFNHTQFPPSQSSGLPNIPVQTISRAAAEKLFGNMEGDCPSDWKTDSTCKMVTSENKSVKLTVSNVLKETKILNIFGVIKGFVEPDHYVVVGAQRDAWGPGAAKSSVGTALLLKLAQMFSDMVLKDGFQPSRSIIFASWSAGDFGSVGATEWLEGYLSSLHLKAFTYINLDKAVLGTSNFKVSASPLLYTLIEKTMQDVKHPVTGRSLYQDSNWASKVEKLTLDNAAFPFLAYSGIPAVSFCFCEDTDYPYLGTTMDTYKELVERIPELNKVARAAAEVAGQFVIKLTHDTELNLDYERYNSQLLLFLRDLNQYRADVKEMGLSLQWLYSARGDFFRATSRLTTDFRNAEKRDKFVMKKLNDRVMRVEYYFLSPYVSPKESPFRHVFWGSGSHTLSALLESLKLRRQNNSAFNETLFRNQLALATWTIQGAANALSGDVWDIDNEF
# B1: h26D3wt_DS, VL-first (His6 and Avi tags, biotinylated) (scFv)
# scFv: DIQMTQSPSSVSASVGDRVTITCKSSQSLLYSTNQKNYLAWYQQKPGKAPKLLIYWASTRESGVPSRFSGSGSGTDFTLTISSLQPEDFATYYCQQYFIYPRTFGCGTKVEIKGGGGSGGGGSGGGGSGGGGSEVQLVQSGAEVKKPGSSVKVSCKASGYIFTDYNMDWVRQAPGQCLEWIGDINPDYDTTSYNEKFKGRATLTVDKSTSTAYMELSSLRSEDTAVYYCARGGYSGSSYYHPMDYWGQGTLVTVSS
# modifications: biotin on the Avi tag (site directed in vivo biotinylation)
# B2: Pyr12.2 (antibody, V domains shown)
# VH: EVQLQQSGPELVKPGTSIKMSCKASGYSFTGFTMNWVKQSHGKNLEWIGLINPYNGVTTYNQKFKGKATITVDKSSRTAYMELLSLTYEDSAVYYCTREGNWEGVYWGQGTPVTVSA
# VL: EVVLTQTPLTLSVTIGQSASISCKSSQSLLDSNGKTYLHWFLLRPGQSPKRLIYLVSILDSGVPDRFTGSGSGTDFTLKISRVEAEDLGIYYCVQGTHFPFTFGSGTKLEIKR
# notes: Murine anti-AβpE3 antibody; also called recombinant antibody Pyr12.2; hybridoma clone Pyr12.2
# B3: h26D3-Fab (Fab, V domains shown)
# VH: EVQLVQSGAEVKKPGSSVKVSCKASGYIFTDYNMDWVRQAPGQGLEWIGDINPDYDTTSYNEKFKGRATLTVDKSTSTAYMELSSLRSEDTAVYYCARGGYSGSSYYHPMDYWGQGTLVTVSS
# VL: DIQMTQSPSSVSASVGDRVTITCKSSQSLLYSTNQKNYLAWYQQKPGKAPKLLIYWASTRESGVPSRFSGSGSGTDFTLTISSLQPEDFATYYCQQYFIYPRTFGQGTKVEIK
# notes: His-tagged Fab from ExpiCHO; also called humanized 26D3 Fab
# Tests used:
# [1] = target: T4, hTfR1 (recombinant, construct not specified) (human, UniProt P02786 89-760, limits assumed); assay: ELISA on coated hTfR1, biotinylated scFv detected with streptavidin-HRP, after 48 h in mouse serum or PBS at 37°C or 4°C
# T4 construct: also called biotinylated hTfR1
# Description: After 48 h incubation, binding of the scFv to hTfR1 was evaluated by ELISA. […] The reaction was stopped by 1:1 addition of 0.5 M sulfuric acid (#35354-1L, Honeywell). Optical density at 450 nm was obtained using a microplate reader (Spark, Tecan) and the collected data was plotted using GraphPad Prism software (GraphPad Software Inc).
# [2] = target: T5, Aβ1-28 monomer (UniProt P05067 672-699); assay: SPR, antibody immobilised
# T5 construct: range 1-28 (Aβ numbering)
# Description: Affinity and specificity evaluation and KD determination by surface plasmon resonance: Binding interactions between antigens and antibodies were evaluated by SPR using a Biacore 8K instrument (Cytiva) according to standard procedures. […] Additionally, the specificity towards different N-truncated forms of Aβ (Aβ2-28, Aβ3-28, Aβ4-28 and AβpE11-28 monomers) was evaluated.
# (§1) Single cycle kinetics with the antibodies immobilized on a CM5 chip was used to measure the binding of the antibodies to the different monomers (AβpE3-40, AβpE11-28, Aβ1-28, Aβ2-28, Aβ3-28 and Aβ4-28). For the measurements, 5 μg/ml of analyte antibody was immobilized on the chip. […] Regeneration of the surface between cycles was done by injecting 30 μl 3 M MgCl₂. The binding data was fitted to a 1:1 interaction model.
# (§2) In all SPR experiments, 1×HBS-EP+ (Cytiva, cat. no. BR100669) was used as running buffer and to dilute antibodies and target antigens. Experiments were performed at 25° C.
# [3] = target: T6, Aβ2-28 monomer (UniProt P05067 673-699); assay: SPR, antibody immobilised
# T6 construct: range 2-28 (Aβ numbering)
# Description: as §1, §2
# [4] = target: T1, AβpE11-28 monomer; assay: SPR, antibody immobilised
# Description: as §1, §2
# [5] = target: T7, AβpE3-40 monomer (UniProt P05067 674-711, pyroglutamate at position 3 (N-terminal residue)); assay: SPR, antibody immobilised, monomer injected, 1:1 fit
# T7 construct: range 3-40 (Aβ numbering); Synthetic peptide (Bachem/Anaspec), verified monomeric by SEC; also called monomeric AβpE3-40
# Description: as §1, §2
# [6] = target: T8, Aβ3-28 monomer (UniProt P05067 674-699); assay: as above
# T8 construct: range 3-28 (Aβ numbering)
# Description: as §1, §2
# [7] = target: T9, Aβ4-28 monomer (UniProt P05067 675-699); assay: as above
# T9 construct: range 4-28 (Aβ numbering)
# Description: as §1, §2
# [8] = target: T7, AβpE3-40 monomer; assay: inhibition ELISA, antigen titrated in solution, AβpE3-40 coat
# Description: (§3) For binding to Aβ1-40 and AβpE11-40, the positive control 4G8 (Covance #SIG-39320, epitope: amino acids 17-24 of Aβ) was included. The recombinant antibodies were incubated at a fixed concentration (0.05 μg/ml) with titrating concentrations of the different Aβ antigens. After incubation for 45 min at 900 rpm to reach equilibrium, the antibody-Aβ samples were added to a blocked and washed ELISA plate with an AβpE3-40 coat (0.5 μM). The samples were incubated on the plate for 25 min without shaking followed by washing, incubation with detection antibody, another washing step and finally incubation with alkaline phosphatase substrate.
# [9] = target: T10, Aβ1-40 monomer (UniProt P05067 672-711); assay: as above
# T10 construct: range 1-40 (Aβ numbering)
# Description: as §3
# [10] = target: T2, AβpE11-40 monomer; assay: as above
# Description: as §3
# [11] = target: T11, AβpE3-42 protofibrils (UniProt P05067 674-713, pyroglutamate at position 3 (N-terminal residue)); assay: as above
# T11 construct: range 3-42 (Aβ numbering); Soluble aggregates made from AβpE3-42 peptide, purified in the void peak of SEC; also called AβpE3-42 PF
# Description: as §3
# [12] = target: T11, AβpE3-42 protofibrils; assay: SPR, protofibrils immobilised, antibody injected, 1:1 fit, apparent
# Description: (§4) Single cycle kinetics was also used to measure binding of the antibodies to AβpE3-42 protofibrils. […] For binding to AβpE3-42 protofibrils, the antibodies were injected over the chip using a 3-fold dilution series in five steps starting at 700 nM, using 2 min injection of every antibody concentration and a 60 min dissociation time. Regeneration of the surface between cycles was done by injecting 30 μl 10 mM glycine-HCl pH 1.7. The binding data was fitted to a 1:1 interaction model.
# as §2
# [13] = target: T12, Aβ1-42 monomer (UniProt P05067 672-713); assay: ELISA: Aβ monomer captured on a polyclonal anti-Aβ42 coat, hybridoma supernatant diluted 1/243, anti-mouse IgG-HRP
# T12 construct: range 1-42 (Aβ numbering)
# [14] = target: T13, Aβ2-42 monomer (UniProt P05067 673-713); assay: as above
# T13 construct: range 2-42 (Aβ numbering)
# [15] = target: T11, AβpE3-42 protofibrils; assay: SPR, protofibrils immobilised, antibody injected, 1:1 fit, apparent; binding to AβpE3-42 protofibrils (not monomer); KD in pM
# Description: as §4, §2
# [16] = target: T14, truncated hTfR1 of SEQ ID NO:122 (human, UniProt P02786 122-760); assay: SPR, TfR1 amine-coupled, Fab injected, 1:1 fit
# T14 construct: also called human TfR1; Human TfR1
# Description: (§5) The interaction was measured using the single cycle kinetics method with a contact time of 120 s at a flow rate of […] followed by a dissociation time of 600 s. Regeneration of the surface between cycles was done by injecting 3M MgCl₂. The binding data were fitted to a 1:1 interaction model. The Fabs were diluted in HBS-EP+ (Cytiva, #BR100669). Experiments were performed at 25° C.
# [17] = target: T3, truncated cTfR1 of SEQ ID NO:123; assay: SPR, TfR1 amine-coupled, Fab injected, 1:1 fit
# Description: as §5
# [18] = target: T14, truncated hTfR1 of SEQ ID NO:122; assay: SPR, TfR1 amine-coupled, Fab injected, 1:1 fit; remark: listed apart in the source
# Description: (§6) Binding of the purified Fabs to human and cynomolgus TfR1 was evaluated using either SPR (FIG. 44) or indirect ELISA (FIG. 45). For SPR, a Biacore 8K instrument (Cytiva) was used. […] The Fabs were injected over the chip using a 2-fold dilution series in four steps starting at 100 nM. The interaction was measured using the single cycle kinetics method with a contact time of 120 s at a flow rate of 30 μl/min followed by a dissociation time of 1000 s. Regeneration of the surface between cycles was done by injecting 3M MgCl₂. The binding data was fitted to a 1:1 interaction model. The Fabs were diluted in HBS-EP+ (Cytiva, #BR100669). Experiments were performed at 25° C.
# [19] = target: T3, truncated cTfR1 of SEQ ID NO:123; assay: SPR, TfR1 amine-coupled, Fab injected, 1:1 fit
# Description: as §6
# [20] = target: T15, ectodomain of human TfR1 (His10-hTfR1; SEQ ID NO:110) (human, UniProt P02786 89-760); assay: indirect ELISA: plate coated with 1 µg/ml hTfR1 ectodomain, Fab in 1:3 serial dilution, anti-human IgG F(ab')2-HRP
# T15 construct: also called ectodomain of hTfR1
# Description: For the indirect ELISA, half area 96-well plates (Corning, #3690) were coated with 1 μg/ml recombinant ectodomain of hTfR1 (SEQ ID NO:110) in PBS overnight at 4° C. The coated plates were blocked using Pierce protein-free blocking solution (Thermo Fisher Scientific, #37572) for 1 h at room temperature with shaking and washed four times in PBS containing 0.1% TWEEN-20. Serial dilutions (1:3) of various expressed constructs in incubation buffer (1% BSA, 0.1% TWEEN-20 in PBS) were incubated for 1 h at room temperature. […] Following four wash steps, K-Blue® Aqueous TMB substrate (Neogen, #331177) was added to the wells for 15 min at room temperature before the reaction was stopped with 1:1 dilution of 0.5 M H₂SO₄. The optical density at 450 nm was recorded (Spark, Tecan) and background signal was subtracted before analysis.
# T8 sequence (P05067 674-699): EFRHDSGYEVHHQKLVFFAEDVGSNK
# T9 sequence (P05067 675-699): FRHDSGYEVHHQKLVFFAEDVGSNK
# T11 sequence (P05067 674-713): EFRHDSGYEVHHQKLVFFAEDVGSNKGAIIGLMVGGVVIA
# T13 sequence (P05067 673-713): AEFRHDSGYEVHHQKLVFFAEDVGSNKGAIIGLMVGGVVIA
# T12 sequence (P05067 672-713): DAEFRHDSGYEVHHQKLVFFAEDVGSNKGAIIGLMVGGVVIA
# T5 sequence (P05067 672-699): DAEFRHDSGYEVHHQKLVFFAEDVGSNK
# T6 sequence (P05067 673-699): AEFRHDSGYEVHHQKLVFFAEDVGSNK
binder,measurement,setting,value
B1,EC50 (read off the curve),[1],~0.02 µg/mL
B2,binding result,[2],no binding (tested: 2500 nM)
same,binding result,[3],no binding (tested: 2500 nM)
same,binding result,[4],no binding (tested: 2500 nM)
same,Kd,[5],0.57 nM
same,koff,[5],4.12e-05 s⁻¹
same,kon,[5],71800 M⁻¹ s⁻¹
same,Kd,[6],42.6 nM
same,koff,[6],5.77e-05 s⁻¹
same,kon,[6],1750 M⁻¹ s⁻¹
same,Kd,[7],6760 nM
same,koff,[7],0.481 s⁻¹
same,kon,[7],78200 M⁻¹ s⁻¹
same,IC50,[8],1.52 nM
same,IC50,[9],> 5000 nM
same,IC50,[10],> 5000 nM
same,IC50,[11],8.43 nM
same,koff,[12],3.31e-06 s⁻¹
same,kon,[12],63100 M⁻¹ s⁻¹
same,binding result,[13],no binding
same,binding result,[14],no binding
same,Kd,[15],0.0536 nM
B3,Kd,[16],3.2 nM
same,koff,[16],0.0045 s⁻¹
same,kon,[16],1.2e+06 M⁻¹ s⁻¹
same,Kd,[17],5.8 nM
same,Kd,[18],10 nM
same,Kd,[19],12 nM
same,EC50 (read off the curve),[20],~0.3 nM
